Consider 2 variants from IntAct's records for PubMed 16096059.

The labels stand for the following.
B1: Tethering factor for nuclear proteasome cut8 (Schizosaccharomyces pombe (strain ATCC 38366 / 972)), P38937 (parent)
chain: METLSYSQIKKRKADFDEDISKRARQLPVGEQLPLSRLLQYSDKQQLFTILLQCVEKHPDLARDIRGILPAPSMDTCVETLRKLLINLNDSFPYGGDKRGDYAFNRIREKYMAVLHALNDMVPCYLPPYSTCFEKNITFLDAATNVVHELPEFHNPNHNVYKSQAYYELTGAWLVVLRQLEDRPVVPLLPLEELEEHNKTSQNRMEEALNYLKQLQKNEPLVHERSHTFQQTNPQNNFHRHTNSMNIGNDNGMGWHSMHQYI
partner: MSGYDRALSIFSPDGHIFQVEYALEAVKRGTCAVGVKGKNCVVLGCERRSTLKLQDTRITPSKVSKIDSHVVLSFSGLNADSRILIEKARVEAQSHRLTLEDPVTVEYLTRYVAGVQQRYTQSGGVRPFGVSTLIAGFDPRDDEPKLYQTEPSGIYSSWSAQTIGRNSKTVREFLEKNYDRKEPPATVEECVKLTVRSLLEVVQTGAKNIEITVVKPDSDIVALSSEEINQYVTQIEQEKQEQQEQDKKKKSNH
B2: Tethering factor for nuclear proteasome cut8 (Schizosaccharomyces pombe (strain ATCC 38366 / 972)), P38937 (parent)
chain: B1 chain
partner: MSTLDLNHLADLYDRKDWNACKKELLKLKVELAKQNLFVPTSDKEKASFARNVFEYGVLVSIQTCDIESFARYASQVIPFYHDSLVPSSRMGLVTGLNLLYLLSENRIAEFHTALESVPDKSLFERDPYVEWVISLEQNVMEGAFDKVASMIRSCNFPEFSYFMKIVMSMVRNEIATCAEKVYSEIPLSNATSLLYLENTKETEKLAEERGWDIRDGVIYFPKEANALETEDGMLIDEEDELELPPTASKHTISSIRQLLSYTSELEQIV

The first assay covers variants of B1. The conditions noted are these: with psa4_yeast PRE6, P40303.
On to K10R;K11R;K13R;K22R;K44R;K57R, for which the “effect of a mutation on the interaction” value is on record as “decreasing interaction”.

Variants of B2 are the subject of another assay. To be noted: with rpn12_schpo rpn12, P50524.
In the case of K10R;K11R;K13R;K22R;K44R;K57R, the “effect of a mutation on the interaction” value is “decreasing interaction”.
